Patent publication US11957762B2, “Immune tolerant and non-immune tolerant elastin-like recombinant peptides and methods of use” (University of Utah Research Foundation, priority 2015, dated 2024)
Where “and” joins values, the source holds several entries; their conditions need not be identical. Identical values can stand only once.

How the values were obtained:
[1] = system: regular 4T1-luc cells; test: Cytotoxicity, regular 4T1-luc cells; type: cell-based, murine; conditions: Mus musculus; regular 4T1-luc cells, 72 hours; read-out: IC50
Method: Cytotoxicity studies. The cytotoxicity was measured as previously described (Zhao, et al; Mol. Pharm, 2014; 11(8):2703-12). The incubation time was 72 hours. 4T1-lu mammosphere cells were generated as the previously described (Zhao, et al; Mol. Pharm, 2014; 11(8):2703-12).

[2] = system: DC2.4 cells; test: Presentation of the CTL epitope […] by DCs (flow cytometry); type: cell-based, murine; conditions: 16 h incubation with DC2.4 cells
Method: Presentation of the CTL epitope, […], by DCs. Cells of a murine DC line (DC2.4, a gift from K. Rock)^(32) were plated at 2.5×10^5/500 μL/well in 24-well plates. 500 μL of OVA, […] peptide (SEQ ID NO: 22), or iTEPB-iTEPA-pOVA NP (SEQ ID NO: 56) (iTEP-pOVA NP hereafter) were dissolved in cell culture media and added to the wells containing DCs. The cells were further cultured for 16 hrs. at 37° C. with 5% CO2 before they were collected and washed with PBS. The MHC class I complex, H-2kb/[…] presented on DC surface was stained with a PE-tagged monoclonal antibody 25-D1.16 (Biolegend, 1:100 dilution) and quantified with flow cytometry (5×10^4 events collected per sample). The data are presented as MFI normalized to the MFI of untreated DC2.4 cells.
Presentation of […] epitope vaccine by DCs. The presentation was studied as previously described (Cho et al., J Drug Target, 2015; p 1-12). The concentration of iTEP-vaccine fusions (NPs) used in this experiment was 5 μM. The results of presentation were shown as mean fluorescence intensity (MFI) of 5000 treated, live cells in a given treatment, which were normalized to the MFI value of untreated DC2.4 cells.

[3] = system: B3Z cells; test: B3Z CD8+ T cell hybridoma activation assay; type: cell-based; conditions: DC2.4 cells pre-incubated with antigen
Method: B3Z CD8+ T cell hybridoma activation assay. B3Z cells (a gift from N. Shastri) are a CD8+ T-cell hybridoma engineered to secrete β-galactosidase when their T-cell receptors are engaged with an […]:H2K^b complex.^(33) To do this assay, 1×10^5 DC2.4 cells/well were set in 96-well plates. OVA, […] peptide (SEQ ID NO: 22), and iTEP-pOVA NP (SEQ ID NO: 56) at indicated concentrations were loaded into the cell culture for 16 hours and then washed away. 1×10^5 B3Z cells/well were added to the DC2.4 cell culture and co-cultured with DC2.4 cells for 24 hours. The cells were washed with PBS before 100 μL of lysis buffer (PBS with 100 mM 2-mercaptoethanol, 9 mM MgCl2, 0.125% NP-40) together with 0.15 mM chlorophenol red β-galactoside were added into the wells. After the plates were incubated at 37° C. for 4 hours, the reaction was stopped with 50 μL/well of 15 mM EDTA and 300 mM glycine. The OD at 570 nm was measured and the OD at 630 nm was used as reference. The OD was used as an indicator as activation status of B3Z cells.
Activation of B3Z hybridoma (CD8+T) cells. This assay was done with a protocol described previously (Cho et al., J Drug Target, 2015; p 1-12).

[4] = system: C57BL/6 mice; test: In vivo CTL response by ELISPOT IFN-γ assay; design: species or system mouse; conditions: subcutaneous immunization twice, 2 nmol SIINFEKL equivalents per mouse with IFA
Excerpt: in vivo CTL response by ELISPOT IFN-γ assay. C57BL/6 mice were immunized subcutaneously with each immunogen (2 nmol […] equivalents per mouse) together with incomplete Freunds Adjuvants (IFA; Sigma, USA) at their left flanks. The immunization was repeated at their right flanks 1 week later. At 10 days after the second immunization, mice were sacrificed, and the spleens were harvested. The spleens of the sacrificed mice were teased into single-cell suspensions and filtered through nylon mesh […]. Red blood cells were lysed by Ammonium-Chloride-Potassium (ACK) lysing buffer. The washed and resuspended single cells were counted using Contess™ Automated Cell Counter (Invitrogen, USA). Splenocytes (8×10^6/mL) were incubated in RPMI-1640 medium supplemented with 10% heat inactivated fetal calf serum, 2 mM glutamine, 100 units/mL penicillin and 100 μg/mL streptomycin (Invitrogen, USA), in a 14 mL polypropylene tissue culture tube for 48 hours, with or without […] peptide (SEQ ID NO: 22) (2.5 μg/mL). The cells were then washed and recounted. 2×10^5 live cells in 100 μL medium were then loaded into wells of 96-well Filtration plates (Millipore, USA) coated with […] of capture anti-mouse IFN-γ mAb (Clone: R4-6A2, Biolegend, USA). Triplicates were set up for each condition. Cells were discarded after 24 hours of culture and the wells were incubated with […] of detectionbiotinylated, anti-mouse IFN-γ mAb overnight (Clone: XMG1.2-Biotin, Biolegend, USA). After the unbound antibodies were washed away from the wells, the bound antibodies were detected using horseradish peroxidase (HRP Avidin, Biolegend, USA) together with 3-amino-9-ethyl-carbazole (AEC) substrate (Sigma, USA). The membranes on the bottom of the wells were peeled off, and color spots on the membrane were scanned. The spots were automatically counted using ImageJ software.
Animal immunization. C57BL/6 mice were immunized by the subcutaneous injection of 2 nmol iTEP NP vaccines and incomplete Freunds Adjuvants (IFA; Sigma, USA) at their left flanks. Immunization was repeated at their right flanks after 1 week. On day 10 after the second immunization, mice were sacrificed, and the spleens were harvested.

[5] = Thermally-induced reversible phase transition (turbidity OD350 vs temperature); type: physicochemical
Excerpt: Characterization of thermally-induced, reversible, inverse phase transition of iTEPs and the iTEPB-iTEPA-pOVA fusion. The phase transitions of iTEP or iTEP fusions were characterized by turbidity changes of sample solutions as a function of temperature. Specifically, the optical density at 350 nm (OD350) of a sample solution was monitored using an UV-visible spectrophotometer equipped with a multi-cell thermoelectric temperature controller (Cary 300, Varian Instruments, Walnut Creek, CA) while the solution was heated from 20° C. to 80° C. and then cooled to 20° C. at a rate of 1° C./min. The maximum first derivative of the turbidity curve of a sample was identified. The transition temperature (Tt) of the sample is the temperature that corresponds to the maximum derivative.

[6] = system: C57BL/6 mice; test: Humoral immunogenicity: IgG titers by ELISA in sera of immunized mice; conditions: mouse, in vivo
Method: Immunization of iTEPs and collection of immune sera. C57BL/6 mice were immunized twice at their right hocks with iTEPs at a dose of 100 μg/mouse. […] At 1 week after the second immunization, 100 μL blood was collected from each immunized mouse. The blood samples were allowed to sit for 30 minutes to one hour at room temperature to clot. Sera were collected from the blood samples after the samples were spun for 10 min at 14,000 rpm at 4° C. The sera were kept at −80° C. before an analysis of the titers of iTEP-specific IgG.
Determination of IgG titers by ELISA. […] Plates were read at OD 450 nm (minus 570 nm for wavelength correction).
The end point titer of a serum IgG was defined as the reciprocal of the higher serum dilution which OD value from the ELISA assay is higher than a statistically valid cutoff. The titer results were expressed as IgG titers (Log 10) for each sample. […] The value of the cutoff was calculated using the following equation:^(31) Cutoff=X+SD t√{square root over (1+(1/n))} where X is the mean absorbance readings of independent PBS control sera, SD is the standard deviation of the readings, n is the number of independent PBS controls (mouse samples), t is the (1−α)th percentile of the one-tailed t-distribution with v=n−1 degrees of freedom.

CC(=O)O[C@H]1C(=O)[C@@]2(C)[C@H]([C@H](OC(=O)c3ccccc3)[C@]3(O)C[C@H](OC(=O)[C@H](O)[C@@H](NC(=O)c4ccccc4)c4ccccc4)C(C)=C1C3(C)C)[C@]1(OC(C)=O)CO[C@@H]1C[C@@H]2O [PTX, paclitaxel, reference compound]
IC50 [1]: 6.3 nM

SIINFEKL [reference compound]
presentation of SIINFEKL by DCs [2]: much stronger
activation of B3Z cells [3]: highest activity among all treatments
SIINFEKL-restricted activated splenocytes (INF-γ ELISPOT) [4]: 60 spots per million seeded splenocytes

B1: G(…)21GG (protein)
chain: GVPGLGAGAGVPGLGAGAGVPGLGAGAGVPGLGAGAGVPGLGAGAGVPGLGAGAGVPGLGAGAGVPGLGAGAGVPGLGAGAGVPGLGAGAGVPGLGAGAGVPGLGAGAGVPGLGAGAGVPGLGAGAGVPGLGAGAGVPGLGAGAGVPGLGAGAGVPGLGAGAGVPGLGAGAGVPGLGAGAGVPGLGAGAGVPGLGAGAGVPGLGAGAGVPGLGAGAGVPGLGAGAGVPGLGAGAGVPGLGAGAGVPGLGAGAGVPGLGAGAGVPGLGAGAGVPGLGAGAGVPGLGAGAGVPGLGAGAGVPGLGAGAGVPGLGAGAGVPGLGAGAGVPGLGAGAGVPGLGAGAGVPGLGAGAGVPGLGAGAGVPGLGAGAGVPGLGAGAGVPGLGAGAGVPGLGAGAGVPGLGAGAGVPGLGAGAGVPGLGAGAGVPGLGAGAGVPGLGAGAGVPGLGAGAGVPGLGAGAGVPGLGAGAGVPGLGAGAGVPGLGAGAGVPGLGAGAGVPGLGAGAGVPGLGAGAGVPGLGAGAGVPGLGAGAGVPGLGAGAGVPGLGAGAGVPGLGAGAGVPGLGAGAGVPGLGAGAGVPGLGAGAGVPGLGAGAGVPGLGAGAGVPGLGAGAGVPGLGAGAGVPGLGAGAGVPGLGAGAGVPGLGAGAGVPGLGAGAGVPGLGAGAGVPGLGAGAGVPGLGAGAGVPGLGAGAGVPGLGAGAGVPGLGAGAGVPGLGAGAGVPGLGAGAGVPGLGAGAGVPGLGAGAGVPGLGAGAGVPGLGAGAGVPGLGAGAGVPGLGAGAGVPGLGAGAGVPGLGAGAGVPGLGAGAGVPGLGAGAGVPGLGAGAGVPGLGAGAGVPGLGAGAGVPGLGAGAGVPGLGAGAGGG
Relative Hydrophobicity [5]: High
(heating) Tt ([5]; 5 μM): 50.5 °C
Tt (cooling) ([5]; 25 μM in H2O): 34.00 ± 0.58 °C
Tt (heating) ([5]; 25 μM in H2O): 35.7 °C and 35.70 ± 0.58 °C
humoral immunogenicity [6]: did not show different immunogenicity
